# Test system: Escherichia coli TOP10
# Test: shrunken log2 fold change of peptide-encoding DNA abundance (4.5 h post-induction vs induction); higher = less antimicrobial activity (less host growth inhibition)
# Details: time post-induction: 4.5 h; library: site-saturation at positions 5, 18, 19, 20
# 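Further: peptides expressed intracellularly from a pBAD plasmid library in pooled LB shake-flask culture, induced with 0.3% L-arabinose, DNA abundance read by NGS, three biological replicates, DESeq2 with apeglm shrinkage.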
row,Sequence,shrunken log2 fold change
1,RRIRCRPPRLPRPRPRPPAKPRP,0.741
2,RRIRKRPPRLPRPRPRPQSHPRP,0.353
3,RRIRKRPPRLPRPRPRPHCQPRP,0.101
4,RRIRCRPPRLPRPRPRPITAPRP,-3.59e-05
5,RRIRQRPPRLPRPRPRPFEMPRP,-0.0512
6,RRIRPRPPRLPRPRPRPVNAPRP,0.138
7,RRIRWRPPRLPRPRPRPCKPPRP,0.119
8,RRIRKRPPRLPRPRPRPIHGPRP,-0.122
9,RRIRIRPPRLPRPRPRPNMEPRP,-0.509
10,RRIRCRPPRLPRPRPRPKLWPRP,0.121
11,RRIRVRPPRLPRPRPRPSFFPRP,-0.2
12,RRIRRRPPRLPRPRPRPNMGPRP,-0.108
13,RRIRRRPPRLPRPRPRPPDLPRP,0.66
14,RRIRVRPPRLPRPRPRPMPGPRP,0.18
15,RRIRLRPPRLPRPRPRPVGVPRP,-0.0387
16,RRIRYRPPRLPRPRPRPTFSPRP,-0.383
17,RRIRWRPPRLPRPRPRPHHQPRP,-0.316
18,RRIRMRPPRLPRPRPRPQRDPRP,0.0785
19,RRIRLRPPRLPRPRPRPAKSPRP,-0.0164
20,RRIRWRPPRLPRPRPRPEEAPRP,0.113
21,RRIRHRPPRLPRPRPRPTHCPRP,-0.000996
22,RRIRGRPPRLPRPRPRPKGVPRP,0.123
23,RRIRVRPPRLPRPRPRPDKTPRP,-0.0309
24,RRIRARPPRLPRPRPRPSSNPRP,1.2
25,RRIRHRPPRLPRPRPRPFDYPRP,-0.0282

row,Sequence,shrunken log2 fold change
1,RRIRKRPPRLPRPRPRPYSYPRP,-0.0565
2,RRIRDRPPRLPRPRPRPACTPRP,0.642
3,RRIRKRPPRLPRPRPRPTDSPRP,-0.0461
4,RRIRRRPPRLPRPRPRPNSAPRP,0.282
5,RRIRERPPRLPRPRPRPLKKPRP,0.0403
6,RRIRMRPPRLPRPRPRPNEIPRP,0.0871
7,RRIRCRPPRLPRPRPRPAWVPRP,0.316
8,RRIRNRPPRLPRPRPRPQFHPRP,-0.28
9,RRIRTRPPRLPRPRPRPSDIPRP,-0.0989
10,RRIRSRPPRLPRPRPRPSSTPRP,-0.397
11,RRIRDRPPRLPRPRPRPLASPRP,0.171
12,RRIRIRPPRLPRPRPRPLSDPRP,0.0446
13,RRIRVRPPRLPRPRPRPTIPPRP,-0.0501
14,RRIRQRPPRLPRPRPRPKGDPRP,0.00911
15,RRIRDRPPRLPRPRPRPGDKPRP,0.088
16,RRIRHRPPRLPRPRPRPRDDPRP,-0.0505
17,RRIRARPPRLPRPRPRPFMKPRP,0.528
18,RRIRPRPPRLPRPRPRPVQEPRP,-0.0759
19,RRIRVRPPRLPRPRPRPMWPPRP,0.0245
20,RRIRYRPPRLPRPRPRPFPWPRP,-0.18
21,RRIRWRPPRLPRPRPRPRTHPRP,0.0534
22,RRIRHRPPRLPRPRPRPPKWPRP,0.345
23,RRIRNRPPRLPRPRPRPWKAPRP,-0.0227
24,RRIRNRPPRLPRPRPRPTRIPRP,-0.183
25,RRIRQRPPRLPRPRPRPHDQPRP,0.00277

row,Sequence,shrunken log2 fold change
1,RRIRPRPPRLPRPRPRPASMPRP,-0.295
2,RRIRFRPPRLPRPRPRPSVWPRP,-0.229
3,RRIRSRPPRLPRPRPRPTIHPRP,-0.51
4,RRIRQRPPRLPRPRPRPFDGPRP,-0.901
5,RRIRDRPPRLPRPRPRPSQGPRP,-0.0558
6,RRIRDRPPRLPRPRPRPCDPPRP,0.041
7,RRIRRRPPRLPRPRPRPRVPPRP,0.745
8,RRIRFRPPRLPRPRPRPWNFPRP,-0.0389
9,RRIRVRPPRLPRPRPRPDERPRP,0.139
10,RRIRWRPPRLPRPRPRPVWPPRP,0.909
11,RRIRVRPPRLPRPRPRPWTAPRP,-0.12
12,RRIRLRPPRLPRPRPRPRWGPRP,0.175
13,RRIRHRPPRLPRPRPRPRYEPRP,-0.0765
14,RRIRRRPPRLPRPRPRPCQDPRP,-0.275
15,RRIRARPPRLPRPRPRPFARPRP,-0.0584
16,RRIRQRPPRLPRPRPRPSFVPRP,-0.161
17,RRIRNRPPRLPRPRPRPCMTPRP,0.0616
18,RRIRGRPPRLPRPRPRPTKCPRP,0.684
19,RRIRLRPPRLPRPRPRPGGNPRP,-0.0421
20,RRIRSRPPRLPRPRPRPMLLPRP,3.53
21,RRIRFRPPRLPRPRPRPNNTPRP,-0.999
22,RRIRLRPPRLPRPRPRPVIHPRP,-1.64
23,RRIRERPPRLPRPRPRPWSGPRP,-0.48
24,RRIRWRPPRLPRPRPRPGIPPRP,0.11
25,RRIRLRPPRLPRPRPRPDSFPRP,-0.0169

row,Sequence,shrunken log2 fold change
1,RRIRARPPRLPRPRPRPELHPRP,0.964
2,RRIRNRPPRLPRPRPRPAKRPRP,0.27
3,RRIRKRPPRLPRPRPRPKLNPRP,0.218
4,RRIRNRPPRLPRPRPRPLRIPRP,0.0934
5,RRIRQRPPRLPRPRPRPICPPRP,0.128
6,RRIRVRPPRLPRPRPRPNHDPRP,-0.369
7,RRIRDRPPRLPRPRPRPIDAPRP,-0.264
8,RRIRFRPPRLPRPRPRPDRPPRP,0.033
9,RRIRGRPPRLPRPRPRPIQVPRP,0.118
10,RRIRMRPPRLPRPRPRPTKYPRP,-0.152
11,RRIRDRPPRLPRPRPRPYCFPRP,-0.744
12,RRIRIRPPRLPRPRPRPFKMPRP,-0.568
13,RRIRRRPPRLPRPRPRPWTTPRP,0.201
14,RRIRPRPPRLPRPRPRPSCYPRP,-0.332
15,RRIRARPPRLPRPRPRPWPKPRP,0.508
16,RRIRERPPRLPRPRPRPLMTPRP,-0.295
17,RRIRFRPPRLPRPRPRPCIQPRP,-0.0483
18,RRIRIRPPRLPRPRPRPCGIPRP,-0.222
19,RRIRYRPPRLPRPRPRPPFMPRP,-0.422
20,RRIRHRPPRLPRPRPRPRSEPRP,0.117
21,RRIRWRPPRLPRPRPRPLTKPRP,0.23
22,RRIRDRPPRLPRPRPRPGHHPRP,0.0913
23,RRIRVRPPRLPRPRPRPMIDPRP,-0.283
24,RRIRNRPPRLPRPRPRPVHAPRP,0.0862
25,RRIRYRPPRLPRPRPRPKPNPRP,-0.158

row,Sequence,shrunken log2 fold change
1,RRIRERPPRLPRPRPRPKAHPRP,0.107
2,RRIRRRPPRLPRPRPRPRLCPRP,0.472
3,RRIRMRPPRLPRPRPRPQNAPRP,0.0821
4,RRIRRRPPRLPRPRPRPIQHPRP,0.0238
5,RRIRLRPPRLPRPRPRPGPYPRP,-0.215
6,RRIRCRPPRLPRPRPRPMNYPRP,-0.226
7,RRIRGRPPRLPRPRPRPLFTPRP,0.572
8,RRIRLRPPRLPRPRPRPINMPRP,-0.482
9,RRIRDRPPRLPRPRPRPGQGPRP,0.257
10,RRIRERPPRLPRPRPRPQPNPRP,-0.084
11,RRIRWRPPRLPRPRPRPWTQPRP,0.272
12,RRIRVRPPRLPRPRPRPWTTPRP,0.115
13,RRIRCRPPRLPRPRPRPFFYPRP,-0.32
14,RRIRYRPPRLPRPRPRPSECPRP,-0.347
15,RRIRWRPPRLPRPRPRPETEPRP,0.411
16,RRIRVRPPRLPRPRPRPRHMPRP,0.152
17,RRIRHRPPRLPRPRPRPYQPPRP,-0.216
18,RRIRVRPPRLPRPRPRPAIFPRP,0.0175
19,RRIRRRPPRLPRPRPRPKCCPRP,0.00261
20,RRIRKRPPRLPRPRPRPLHGPRP,-0.0122
21,RRIRARPPRLPRPRPRPGIKPRP,-0.0359
22,RRIRFRPPRLPRPRPRPKGNPRP,-0.047
23,RRIRRRPPRLPRPRPRPVWNPRP,0.0425
24,RRIRPRPPRLPRPRPRPCPRPRP,0.0438
25,RRIRCRPPRLPRPRPRPYNAPRP,-1.23

row,Sequence,shrunken log2 fold change
1,RRIRNRPPRLPRPRPRPKQPPRP,0.00591
2,RRIRCRPPRLPRPRPRPNESPRP,-0.00497
3,RRIRARPPRLPRPRPRPLWAPRP,0.589
4,RRIRPRPPRLPRPRPRPECYPRP,0.044
5,RRIRRRPPRLPRPRPRPQWWPRP,0.297
6,RRIRHRPPRLPRPRPRPYIRPRP,-0.0464
7,RRIRLRPPRLPRPRPRPDHHPRP,-0.769
8,RRIRVRPPRLPRPRPRPTQAPRP,0.55
9,RRIRLRPPRLPRPRPRPCGWPRP,0.124
10,RRIRPRPPRLPRPRPRPDVGPRP,0.181
11,RRIRTRPPRLPRPRPRPRNHPRP,-0.345
12,RRIRERPPRLPRPRPRPSSQPRP,0.123
13,RRIRPRPPRLPRPRPRPKNVPRP,-0.169
14,RRIRARPPRLPRPRPRPVTKPRP,0.128
15,RRIRERPPRLPRPRPRPWGRPRP,0.268
16,RRIRLRPPRLPRPRPRPIDWPRP,-0.00448
17,RRIRWRPPRLPRPRPRPDFLPRP,-0.221
18,RRIRMRPPRLPRPRPRPYEEPRP,-0.228
19,RRIRIRPPRLPRPRPRPNQFPRP,-0.0326
20,RRIRMRPPRLPRPRPRPNTSPRP,-0.0142
21,RRIRCRPPRLPRPRPRPCWGPRP,-0.195
22,RRIRRRPPRLPRPRPRPSDYPRP,-0.185
23,RRIRQRPPRLPRPRPRPFFQPRP,-0.0889
24,RRIRPRPPRLPRPRPRPIILPRP,-0.0642
25,RRIRGRPPRLPRPRPRPPYRPRP,0.388
